Source: patent US20240000957A1 (published 2024)
*1 amine or outer side, *2 acyl side, *3 side chain or, on linkers, in order; H or OH if unused. Bridges are numbered along the chain shown (N, C = ends). Where no end group is shown, it is not given here. [ ]: non-standard residue; d: D form. TATA = O=C(CC[*:1])N1CN(C(=O)CC[*:2])CN(C(=O)CC[*:3])C1; 2Nal = N[C@@H](Cc1ccc2ccccc2c1)C(=O)O; βAla = NCCC(=O)O; Sar = CNCC(=O)O

B1: Compound 93 (peptide)
peptide: ACPLVNPLCLHPG[2Nal]SCRGQ
modifications: linker 2-9-16 via TATA; not fully specified (C-terminus); printed as ACPLVNPLCLHPG(2Nal)SCRGQ
B2: Compound 88 (peptide)
peptide: Ac-CPLVNPLCLHPGWSCRGQ
modifications: linker 1-8-15 via TATA; not fully specified (C-terminus); printed as Ac-CPLVNPLCLHPGWSCRGQ
B3: Compound 17 (peptide)
peptide: [βAla][Sar][Sar][Sar][Sar][Sar][Sar][Sar][Sar][Sar][Sar]ACVPDRRCAYMNVC
modifications: linker 13-19-25 via TATA; not fully specified (C-terminus); printed as (β-Ala)-Sar10-ACVPDRRCAYMNVC

Molecular target: T1, Human EphA2 (Ecto), C-terminal polyHis (Human, UniProt P29317 24-537)
T1 construct: extracellular domain; R&D systems 3035-A2 or in-house
T1 sequence (P29317 24-537): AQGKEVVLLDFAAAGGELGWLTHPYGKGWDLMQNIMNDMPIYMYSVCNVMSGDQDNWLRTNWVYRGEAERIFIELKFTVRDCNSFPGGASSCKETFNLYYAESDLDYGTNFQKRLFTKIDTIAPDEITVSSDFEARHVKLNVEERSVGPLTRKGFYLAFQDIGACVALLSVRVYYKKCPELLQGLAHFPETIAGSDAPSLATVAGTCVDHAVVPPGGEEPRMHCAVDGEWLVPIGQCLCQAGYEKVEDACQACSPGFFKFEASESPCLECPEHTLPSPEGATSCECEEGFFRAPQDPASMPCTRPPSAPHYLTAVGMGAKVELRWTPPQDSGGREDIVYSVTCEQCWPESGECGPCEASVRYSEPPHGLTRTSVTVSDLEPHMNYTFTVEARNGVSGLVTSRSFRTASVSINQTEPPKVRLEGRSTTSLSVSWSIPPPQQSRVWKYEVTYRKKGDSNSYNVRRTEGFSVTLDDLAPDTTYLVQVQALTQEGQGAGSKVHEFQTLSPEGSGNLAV
Test: FP competition vs Reference Compound C

Binder	Ki
ACGFMGLEPCELFCMPK (linker 2-10-14 via TATA; not fully specified (C-terminus)) [Compound 47]	185 nM
ACGFMGLVPCNVFCA (linker 2-10-14 via TATA; not fully specified (C-terminus)) [Compound 45]	142 nM
HSGCRPDPRCAYMNVCA (linker 4-10-16 via TATA) [Compound 21]	62.1 nM
ACPLVNPLCLTPGWTCTNT (linker 2-9-16 via TATA; not fully specified (C-terminus)) [Compound 94]	13.2 nM
ACQSCWAYPDTYCA (linker 2-5-13 via TATA; not fully specified (C-terminus)) [Compound 39]	321 nM
ACMNDWWCAMGWKCA (linker 2-8-14 via TATA) [Compound 15]	278 nM
ACGFMGLEPCELYCAHT (linker 2-10-14 via TATA; not fully specified (C-terminus)) [Compound 49]	144 nM
ACPLVNPLCNLPGWTCA (linker 2-9-16 via TATA; not fully specified (C-terminus)) [Compound 56]	184 nM
ACVPDRRCAFQDVCDHE (linker 2-8-14 via TATA; not fully specified (C-terminus)) [Compound 27]	159 nM
ACRNWGMYCAYPDTICA (linker 2-9-16 via TATA; not fully specified (C-terminus)) [Compound 35]	282 nM
ACVPDRRCAFENVCVDH (linker 2-8-14 via TATA; not fully specified (C-terminus)) [Compound 25]	97.3 nM
ACVPDRRCAYMNVCA (linker 2-8-14 via TATA) [Compound 16]	70 nM
ACGFMGLEPCVTYCA (linker 2-10-14 via TATA; not fully specified (C-terminus)) [Compound 43]	234 nM
ACPLVNPLCLTSGWKCA (linker 2-9-16 via TATA; not fully specified (C-terminus)) [Compound 52]	115 nM
DLRCGGDPRCAYMNVCA (linker 4-10-16 via TATA) [Compound 18]	70.8 nM
ACSSCWAYPDSVCA (linker 2-5-13 via TATA; not fully specified (C-terminus)) [Compound 38]	400 nM
ACGFMGLVPCEVHCA (linker 2-10-14 via TATA; not fully specified (C-terminus)) [Compound 41]	155 nM
ACPLVNPLCLHPGWTCA (linker 2-9-16 via TATA; not fully specified (C-terminus)) [Compound 64]	30 nM
ACPLVNPLCLHPGWICA (linker 2-9-16 via TATA; not fully specified (C-terminus)) [Compound 54]	15.2 nM
ACPMVNPLCLHPGWTCA (linker 2-9-16 via TATA) [Compound 97]	20 nM
ACPLVNPLCLEPGWTCA (linker 2-9-16 via TATA; not fully specified (C-terminus)) [Compound 84]	53.9 nM
ACPLVNPLCLVPGWSCA (linker 2-9-16 via TATA; not fully specified (C-terminus)) [Compound 57]	35.4 nM
ACPLVNPLCLHPGWSCA (linker 2-9-16 via TATA; not fully specified (C-terminus)) [Compound 86]	56.1 nM

Binder	Ki
ACPLVNPLCLHPGWRCA (linker 2-9-16 via TATA; not fully specified (C-terminus)) [Compound 55]	20.6 nM
ACPLVNPLCLAPGWTCA (linker 2-9-16 via TATA; not fully specified (C-terminus)) [Compound 82]	46.2 nM
ACPMVNPLCLHPGWICA (linker 2-9-16 via TATA; not fully specified (C-terminus)) [Compound 53]	15.4 nM
B1	228 nM
ACVPDRRCAFRDVCLTG (linker 2-8-14 via TATA; not fully specified (C-terminus)) [Compound 28]	1700 nM
ACGFMGLVPCELYCADN (linker 2-10-14 via TATA; not fully specified (C-terminus)) [Compound 51]	84.4 nM
B2	1.64 nM
ACPLVNPLCLEPGWTCAKR (linker 2-9-16 via TATA; not fully specified (C-terminus)) [Compound 85]	10.9 nM
ESRCSPDARCAYMNVCA (linker 4-10-16 via TATA) [Compound 20]	57 nM
ACPDWGKYCAYPDTICA (linker 2-9-16 via TATA; not fully specified (C-terminus)) [Compound 36]	160 nM
ETVCLPDSRCAYMNVCA (linker 4-10-16 via TATA; not fully specified (C-terminus)) [Compound 23]	130 nM
ACRGEWGYCAYPDTICA (linker 2-9-16 via TATA; not fully specified (C-terminus)) [Compound 34]	348 nM
TPRCPLVNPLCLMPGWTCA (linker 4-11-18 via TATA; not fully specified (C-terminus)) [Compound 81]	9.8 nM
ACTKPTGFCAYPDTICA (linker 2-9-16 via TATA; not fully specified (C-terminus)) [Compound 33]	268 nM
SRPCVIDSRCAYMNVCA (linker 4-10-16 via TATA) [Compound 19]	94.8 nM
ACVPDRRCAFMNVCEDR (linker 2-8-14 via TATA; not fully specified (C-terminus)) [Compound 26]	39 nM
B3	85 nM
ACGFMGLEPCELFCA (linker 2-10-14 via TATA; not fully specified (C-terminus)) [Compound 46]	81.7 nM
ACGFMGLEPCEMVCA (linker 2-10-14 via TATA; not fully specified (C-terminus)) [Compound 42]	320 nM
ACGFMGLEPCEMYCA (linker 2-10-14 via TATA; not fully specified (C-terminus)) [Compound 50]	140 nM
ACGFMGLEPCELVCA (linker 2-10-14 via TATA; not fully specified (C-terminus)) [Compound 44]	127 nM
ACGFMGLEPCETFCA (linker 2-10-14 via TATA; not fully specified (C-terminus)) [Compound 40]	188 nM
GSGCKPDSRCAYMNVCA (linker 4-10-16 via TATA; not fully specified (C-terminus)) [Compound 22]	63.2 nM
